According to patent US20230097381A1, “COMPOSITION, KIT AND METHOD FOR DIAGNOSIS AND TREATMENT OF PROSTATE CANCER” (RADIOMEDIX, INC., priority 2020, published 2023):

Key:
in vivo [1] = test: in vivo; set-up: species or system athymic nude mice; conditions: athymic nude, mouse, iv, 40 uCi, total radioactivity
Procedure: (§1) Athymic strains of mice bearing LNCap xenografts were injected via the tail vein with 40 μCi of ^203Pb-DOTAM-PSMA reconstituted in 200-250 μL of saline. At 1 h and 3 h post injection, while under anesthesia blood was collected by cardiac puncture and mice were sacrificed by cervical dislocation. The heart, lung liver, stomach, pancreas, spleen fat, kidney, muscle, intestines, skin and tumor were collected. Each organ was weighed, and the tissue radioactivity was measured with an automated gamma counter (2470 Wizard2 Gamma Counter, Perkin-Elmer, Waltham, Mass.). The percentage of injected dose per gram of tissue (% ID/g) was calculated. All measurements were corrected for decay.

LNCap xenografts [2] = test: in vivo; set-up: species or system athymic nude mice; conditions: mouse
Procedure: as §1

in vivo [3] = test: in vivo; set-up: species or system athymic nude mice; conditions: athymic nude, mouse, iv, 15 uCi, total radioactivity
Procedure: as §1, with “with 15” for “with 40”, “of ^212Pb-DOTAM-PSMA” for “of ^203Pb-DOTAM-PSMA”, “in 150-200” for “in 200-250”, “1 h,” for “1 h and”, “3 h,” for “3 h”, “calculated. AH” for “calculated. All”

LNCap xenografts [4] = test: in vivo; set-up: species or system athymic nude mice; conditions: mouse; remark: listed apart in the source
Procedure: as §1, with “with 15” for “with 40”, “of ^212Pb-DOTAM-PSMA” for “of ^203Pb-DOTAM-PSMA”, “in 150-200” for “in 200-250”, “1 h,” for “1 h and”, “3 h,” for “3 h”, “calculated. AH” for “calculated. All”

[5] = test system: PSMA-overexpressing LNCap and 22Rv1-derived xenografts; set-up: species or system Athymic Nude Mice; conditions: mouse, in vivo
Procedure: About 5×10^6 LNCap and 22Rv1 cells suspended in 100 μL of RPMI 1640 with 50% Matrigel (Corning, Corning, N.Y.) were subcutaneously injected into upper flank of 6-7-week-old mice. Xenografts were generated in Athymic Nude Mice (Envigo, Indianapolis, Ind. and Taconic, Rensselaer, N.Y.). When xenograft tumor reached the size of 0.25 cm^3 in diameter, all mice were randomly divided in groups for PET imaging and biodistribution studies.
PET/X-Ray imaging studies were performed using GENISYS^4 scanner (Sofie Bioscience, Curlver City, Calif.). Mice were anesthetized using with isoflurane (2% in 98% oxygen) and their temperature was kept at 38° C. with a heating lamp during injection of the agent and image acquisition All images were corrected for photon attenuation, but scatter correction was not applied. Maximum-Likehood Expectation Maximization was used to create final images volumes. Static PET scans were acquired approximately at 1 h, 2 h, 4 h after intravenous injection of ^64Cu-DOTAM-PSMA in 200 μL volume. The image acquisition time was 10 minutes. VivoQuant software (Invicro, Boston, Mass.) was used to determine the ROI (Sum) for tumor, liver, kidney, muscle and salivary gland which were equivalent to % ID/g uptake of agent at various time points.

[6] = test system: LNCap and 22Rv1 xenografts; set-up: species or system R2G2 strain of mice; conditions: mouse, in vivo
Procedure: […] strains of mice bearing LNCap and 22Rv1 xenografts were injected via the tail vein with 50-100 μCi of ^64Cu-DOTAM-PSMA reconstituted in 150-200 μL of saline. At 1 h, 2 h, and 24 hrs. post injection, while under anesthesia blood was collected by cardiac puncture and mice were sacrificed by cervical dislocation. The heart, lung liver, stomach, pancreas, spleen fat, kidney, muscle, intestines, skin and tumor were collected. Each organ was weighed, and the tissue radioactivity was measured with an automated gamma counter (2470 Wizard2 Gamma Counter, Perkin-Elmer, Waltham, Mass.). The percentage of injected dose per gram of tissue (% ID/g) was calculated. All measurements were corrected for decay.

in vivo [7] = test: in vivo; set-up: species or system athymic nude mice; conditions: athymic nude, mouse, iv, total radioactivity
Procedure: Mice bearing LNCap and 22Rv1 xenografts were injected via the tail vein with 50-100 μCi of ^64Cu-DOTAM-PSMA reconstituted in 150-200 μL of saline. At 1 h, 2 h, and 24 hrs. post injection, while under anesthesia blood was collected by cardiac puncture and mice were sacrificed by cervical dislocation. The heart, lung liver, stomach, pancreas, spleen fat, kidney, muscle, intestines, skin and tumor were collected. Each organ was weighed, and the tissue radioactivity was measured with an automated gamma counter (2470 Wizard2 Gamma Counter, Perkin-Elmer, Waltham, Mass.). The percentage of injected dose per gram of tissue (% ID/g) was calculated. All measurements were corrected for decay.

SMILES: NC(=O)CN1CCN(CC(N)=O)CCN(CC(=O)N[C@H](Cc2ccccc2)C(=O)N[C@H](Cc2ccccc2)C(=O)N[C@H](CCCCNC(=O)CCCCCCC(=O)NCCCC[C@H](NC(=O)N[C@@H](CCC(=O)O)C(=O)O)C(=O)O)C(=O)O)CCN(CC(N)=O)CC1 [^203Pb-DOTAM-PSMA, metal not drawn]
- tissue uptake at 1 h (in vivo [1]): 16.1 ± 0.8 %ID/g
- tissue uptake at 3 h (in vivo [1]): > 4.8 %ID/g
- decrease of renal retention (LNCap xenografts [2]): 32%
- normal organs distribution, ^203Pb- versus ^212Pb-DOTAM-PSMA (LNCap xenografts [2]): very similar normal organs distribution

SMILES: NC(=O)CN1CCN(CC(N)=O)CCN(CC(=O)N[C@H](Cc2ccccc2)C(=O)N[C@H](Cc2ccccc2)C(=O)N[C@H](CCCCNC(=O)CCCCCCC(=O)NCCCC[C@H](NC(=O)N[C@@H](CCC(=O)O)C(=O)O)C(=O)O)C(=O)O)CCN(CC(N)=O)CC1 [^212Pb-DOTAM-PSMA, metal not drawn]
- tissue uptake at 1 h (in vivo [3]; Tumor uptake): 5.7 ± 0.9 %ID/g
- tissue uptake at 3 h (in vivo [3]; Tumor uptake): 7.2 ± 2.6 %ID/g
- tissue uptake at 1 h (in vivo [3]; renal retention): 32.2 ± 15.6 %ID/g
- tissue uptake at 3 h (in vivo [3]; renal retention): 17.7 ± 9.4 %ID/g
- decrease of renal retention (LNCap xenografts [4]): 55%
- uptake in bone and spleen (LNCap xenografts [4]): not uptake of agent in bone and spleen

SMILES: NC(=O)CN1CCN(CC(N)=O)CCN(CC(=O)N[C@H](Cc2ccccc2)C(=O)N[C@H](Cc2ccccc2)C(=O)N[C@H](CCCCNC(=O)CCCCCCC(=O)NCCCC[C@H](NC(=O)N[C@@H](CCC(=O)O)C(=O)O)C(=O)O)C(=O)O)CCN(CC(N)=O)CC1 [^64Cu-DOTAM-PSMA, metal not drawn]
- highest non-target uptake of agent (organ) [5]: liver
- retention in LNCap and 22Rv1-derived tumors (microPET) [5]: confirmed retention
- tumor retention in LNCap and 22Rv1 cancer cells (microPET) [5]: confirmed its tumor retention
- liver retention of trans-chelated Cu64, comparison of strains [6]: higher in R2G2 mice strain compared to NOG strain but it was still lower the one observed in athymic nude
- tumor retention, R2G2 strain versus NOG strain [6]: much more favorable in R2G2 strain than NOG strain
- tissue uptake at 24 h (in vivo [7]; Retention in tumor): 10 ± 11.1 %ID/g
- tissue uptake at 2 h (in vivo [7]; Tumor uptake): 24.8 ± 31.1 %ID/g
- tissue uptake at 4 h (in vivo [7]; Tumor uptake): 9.7 ± 10.9 %ID/g
- tissue uptake at 2 h (in vivo [7]; off-target accumulation in kidneys): 20 ± 2.9 %ID/g
- tissue uptake at 2 h (in vivo [7]; off-target accumulation in liver): 45.8 ± 6.2 %ID/g
- tissue uptake at 4 h (in vivo [7]; renal retention): 13 ± 0.6 %ID/g
- tissue uptake at 24 h (in vivo [7]; uptake in kidneys): 7.8 ± 7.9 %ID/g
- tissue uptake at 24 h (in vivo [7]; uptake in liver): 12.4 ± 11.9 %ID/g
